Reference: the DeepSol protein solubility set

test: soluble on expression in E. coli; label from the status in PepcDB or PDB records

Row | Sequence | soluble on expression in E. coli
1 | MGSDKIHHHHHHMSLSYLQTSLDRIDAAARDDVIEICINPDGSCWGEFQGDHFMRKLDQALTATEVKDLGNQIASSANTTMSKDRPIVSVSITYKGRPIRAQVITPPAVLSAMSISLRFFSSLPLDGIALDFLYGKERKLEKLRLKKTRELREVVAAGVIDDALAFCVDNKLNMIVSGGTSTGKTVAARKILSHVPADERIVTIEEAAELLPTQPNAVTLIANRDAEFQTADVLLTATLRMRPDRIILGEVRGKEAMTFLEAINTGHGGSMTTLHAETPQLAVQRLAIAALKTEIPMTYADMIQYIENSIDVIIQAGRHDGRRGITEFYLPGATEIGVSQ | not soluble
2 | MSLNEETRKKKKRPSLTTLYEGTMKEITSNENRYIEFLNFASRVHKYSFDEQLLLYAQKQDVHMVATFDIWKKLGRFVKRGSTAALLFDYTTQQRKYVFDISETGGEPLQVFDWQLLDNDKNDLLRYWNTYEKQSGTLVNWEDGIHAKIASYQKPIGDQIHPFFVKDIEVVAAYIIYQRTNTLIPEDLLLDVQSVLQIGKRDNTLLEIQHFANLTAKEFLQDVERILNNELKKERVLYHDRIKFEDELSRREWQPASRDREGHHHHHH | not soluble
3 | MAKGSSDKDNGYGNIRTSTSLSICCQDSHLTTPIAPIAPELYSLKVPKDYTPETTSTMRRSLESRLAWLGRQSYVFRSLKQLETVTHNATIRTFFWKDGSVSSSTGGNDGFWIKDELHAGA | not soluble
4 | MRGSHHHHHHGMASMTGGQQMGRDLYDDDDKMSVIKPEMKMKYFMDGSVNGHEFTVEGEGTGKPYEGKHKITLDVTKGGPLPFAFDLLSTVFSYGNRCLTKYPDDIPDYFKQCFPGGYSWERKFEFEDGGLAIAKAEISLKGNCFEHKSTIEGTFPDSSPIAQNKTLGWEPSTEKMTVRDGSMKGDDAAYLKLVGGGNHKCYFTTTYTAKKKIPNLPQSHFIGHRISSVVNGTKIGVMEDAIAHLYPFNGVPCQ | soluble
5 | MTILPVKKKREKDSQQRSVSTIGSSAENSRQQLSGPSCSSSASSSSSAAKRIRSQEDGPPSKRWVLSASSTSSTNKSPIPSSSPVLPPPQPEIEPNRSQSPGNADYNSDDEYEMQNIRDDEIETEFSNRLAARGLIIKEMVGDGACMFRSIAEQIYGDQEMHGQIRRLCMDYMSNNRDHFKEFITENFENYIQRKREENVHGNHVELQAISEIKKKSNYILKNSLHSINSEPINVLLPRPEPEATALTDGSASTSNAAPPPSTVPIQQNPPLRLSYHRAVHYNAILAPNIPTIGIGLGLPGMIPGSADKELMSTAMKTSELEHIEETMLQDKIDMTDFQRTQADIEDQITRESLISYLNDFEKSKNAPSTSAGAPGPSNFSGEPPVSGSGLYEEMLAAQSLEWDAYTDDVAIAEAMLVSQQDYMSNKPSTSSSGSGPSTSE | not soluble
6 | MGSDKIHHHHHHMQPPLTDKQFKHTIDYDSRLLPYKYYHTCVMDGIPDILFHWHNEFEINYVYGGTARYHIDYDYFNSQAGDIILIRPNAAHSIHPIEQRGHETDTLLFHLDMLGASQLDHTSMLYLQPLQTDVFKCILRIQPQDPGYAEIRQCLLTIFELVRHQPPYFELPLKSRLFDFFYLLYRYRYIVRKNTDDMYRKNEKLRLLIEHIQQHYAENLTIEQLAEQMGYTKTHFMTIFKQQTGTSCMEFIIQVRLRAATELLTNTLKPVLEIATEVGFNNLSNFNRQFKQYYHTTPSSYRKQLRKNRTYTNFDK | not soluble
7 | MSTTVEKIKAIEDEMARTQKNKATSFHLGQLKAKLAKLRRELLTSASSGSGGGAGIGFDVARTGVASVGFVGFPSVGKSTLLSKLTGTESEAAEYEFTTLVTVPGVIRYKGAKIQMLDLPGIIDGAKDGRGRGKQVIAVARTCNLLFIILDVNKPLHHKQIIEKELEGVGIRLNKTPPDILIKKKEKGGISITNTVPLTHLGNDEIRAVMSEYRINSAEIAFRCDATVDDLIDVLEASSRRYMPAIYVLNKIDSLSIEELELLYRIPNAVPISSGQDWNLDELLQVMWDRLNLVRIYTKPKGQIPDFTDPVVLRSDRCSVKDFCNQIHKSLVDDFRNALVYGSSVKHQPQYVGLSHILEDEDVVTILKK | soluble
8 | MKNMIKAASLGLIILSSSMMANAAEAAQKIGYINTAQVFQALPQREVVLQKMQEEFKDKAAELQAIQADAKTKIEKLKRDGQLMGQDEVEKLRIEIGQLDSKYKIKAQALEQASARREAEEKQKLFKVIQDAVKKVAEKEGYDIVLDTSSMQYGKPEHNLSEKVIKAIK | not soluble
9 | MNTKPQLTLLKVQASYRGDPTTLFHQLCGARPATLLLESAEINDKQNLQSLLVIDSALRITALGHTVSVQALTANGPALLPLLDEALPPEVRNQARPNGRELTFPAIDAVQDEDARLRSLSVFDALRTILTLVDSPADEREAVMLGGLFAYDLVAGFENLPALRQDQRCPDFCFYLAETLLVLDHQRGSARLQASVFSEQASEAQRLQHRLEQLQAELQQPPQPIPHQKLENMQLSCNQSDEEYGAVVSELQEAIRQGEIFQVVPSRRFSLPCPAPLGPYQTLKDNNPSPYMFFMQDDDFTLFGASPESALKYDAGNRQIEIYPIAGTRPRGRRADGSLDLDLDSRIELEMRTDHKELAEHLMLVDLARNDLARICQAGSRYVADLTKVDRYSFVMHLVSRVVGTLRADLDVLHAYQACMNMGTLSGAPKVRAMQLIAALRSTRRGSYGGRVGYFTAVRNLDTCIVIRSAYVEDGHRTVQAGAGVVQDSIPEREADETRNKARAVLRAIATAHHAKEVF | soluble
10 | MGSDKIHHHHHHMKLEKILQDLEQNHNLRTLTPLKHENKFVYKQDHKLLNLVGNDYLYLASSKELKAEFLNTLKEQDLFFSSSSSRSLSGNFEIYEKLESFLKTKFKDKEILHFNSGYHLNISCIAALSSVSKTLFLTDKFIHASMIDGLRLGRADFFRFHHKDMNHLESLIQKHYENYENIIVLSEALFSMDGDFSDFKTLCELKRRYDKIKLYIDEAHSVGCFDEEGLGLVKKLALENEVDFLVFTFGKALASMGACIICDEKYKKFFINKARAFIYSTALPPINVAWTQFIFKKMPYFKKEREKLELLSTFFKSKLQEKNHIVLGDAYIICLLLGENKKALEISQKLQKAGFFAPAIKEPTVPKNTARIRFSLHAGLNTEELERIIELL | not soluble
11 | SVYINRMTGLSTFVAPTDDLHTACTKDLTTVAVDVLLGNDAVDAAAAAVSEPLQSLFSEWSNPVFARYPEVAVDVSSGQAESLAVKIHNVLYPYRFTKEMIHSVKVLQQVDNKFIACLMSTRMDEDGRTGGNLLVLVDQHAAHERIRLEQLITDSYEKQDPQSAGRKKLLSSTIIPPLAITVSEEQRRLLRN | soluble
12 | MGSSHHHHHHSSGLVPRGSHMRVAMISMHTSPLQQPGTGDSGGMNVYILSTATELAKQGIEVDIYTRATRPSQGEIVRVAENLRVINIAAGPYEGLSKEELPTQLAAFTGGMLSFTRREKVTYDLIHSHYWLSGQVGWLLRDLWRIPLIHTAHTLAAVKNSYRDDSDTPESEARRICEQQLVDNADVLAVNTQEEMQDLMHHYDADPDRISVVSPGADVELYSPGNDRATERSRRELGIPLHTKVVAFVGRLQPFKGPQVLIKAVAALFDRDPDRNLRVIICGGPSGPNATPDTYRHMAEELGVEKRIRFLDPRPPSELVAVYRAADIVAVPSFNESFGLVAMEAQASGTPVIAARVGGLPIAVAEGETGLLVDGHSPHAWADALATLLDDDETRIRMGEDAVEHARTFSWAATAAQLSSLYNDAIANENVDGETHHG | soluble
13 | MSDKLTEKTVKLDTPIMRGKTEITEIVLRKPQSGALRGTRLQAIMDMDVGAMMTVIPRISTPTLTAQEMAELDPADLTALSVEVVTFLLKKSVLAGLPTA | not soluble
14 | MEAEGFPRLFHNFENVPEPKECKKVGSVPSYLTGTMLRNGPGMFTVGEEEYKHWFDGLGFMQRYHFEDGKMFYSARYLESEAYTKTVEAQRIVAGTFGTLSFPDPCKTIFSKYFSEFMNHSEKHDNSNVAFTPVGDSLYACTETPHMYRVDLDTLKTLEAADFSKFVAVHSCTAHQLYDENGDVYNIGSRFGPESAHVFTVTKNPKNQKSENDHSWEHTSKIGEIKASDPLYPTYMHSFGMSENYLVMFESPVRLHLQKYLLSEFVRATYHDCLEWHGDKDVSIFILNKKTGEQLPLTLKMNPFFTFHHANTFEKDGCLVMDYCRIENAGKFDTLLISNMKTGEFQYDAKFLPYLTRVIVPMSVSSSAKPGDNLLKSVPWASGCTSILQDDGSIRLTERRVCETSMEFPRYHWEKINMKEYRYVFGSTVFGRIDGNLAGVVKADLKFGNHLIWNRENPHQICGEPIFVPNPEGIEEDDGILIVPIMSSSEKQVPFVLILDAKTLEETARFEIPEARIPLGFHAFYKPKN | not soluble
15 | MSLDNKGDIWYDLISAVHKSIRGSDPDAALYWAARMISAGCDPLYIARRLLAIASEDVGNADPRGMQVALAAWDCFTRVGPAEGERAIAQAIVYLACAPKSNAVYTAWKQALSDAHNLPEFEVPPHLRNAPTRLMKDLGYGEEYRYAHDEPGAYAAGECYFPPEMSGTRYYQPTPRGLETKIAEKLAYLADLNAKSPQKEGHHHHHH | soluble
16 | MGSDKIHHHHHHMYQPISIVNIYYQGFGDKRLIGKLTMDGRRPTFGYDAAWLADGLELSPIEMPLRSAPYYGSHASSHYLCGLLSDSLPDGWGMLLMDRFFRRTISNTAPVNILDRLAYIGDSAMGALSFEPQHDLSANVIDMSELTLAKLAAANQTILSGQDSDILAELIVIGGSPQGARPKALVLYDESSDFITTDTASKNPSATSWLIKFPAQSEHKSVCLLEALYADMAKKAGLNMPMHHYFDIDSEYAAFGVERFDRMGNQRVHIHTLAGLLDIDFRIPSLDYLQYLRCVRMLTQSQLAVESAFKHAVFNVIFNNKDDHSKNFSFMMNEAGSWSLSPVYDLAYNSGMNGYHQMDVAGEARYPTLSHLLKLAKLADIKQNKAQAIIDQVASVAEDFLTVINDHDIEKELSNRVIQDIKANINRMVS | not soluble
17 | CGIVGAIAQRDVAEILLEGLRRLEYRGYDSAGLAVVDAEGHMTRLRRLGKVQMLAQAAEEHPLHGGTGIAHTRWATHGEPSEVNAHPHVSEHIVVVHNGIIENHEPLREELKARGYTFVSETDTEVIAHLVNWELKQGGTLREAVLRAIPQLRGAYGTVIMDSRHPDTLLAARSGSPLVIGLGMGENFIASDQLALLPVTRRFIFLEEGDIAEITRRSVNIFDKTGAEVKRQDIESNLQYDAGDKGIYRHYMQKEIYEQPNAIKNTLTGRISHGQVDLSELGPNADELLSKVEHIQILACGTSYNSGMVSRYWFESLAGIPCDVEIASEFRYRKSAVRRNSLMITLSQSGETADTLAGLRLSKELGYLGSLAICNVPGSSLVRESDLALMTNAGTEIGVASTKAFTTQLTVLLMLVAKLSKLKGLDASIEHDIVHGLQALPSRIEQMLSQDKRIEALAEDFSDKHHALFLGRGDQYPIALEGALKLKEISYIHAEAYAAGELKHGPLALIDADMPVIVVAPNNELLEKLKSNIEEVRARGGQLYVFADQDAGFVSSDNMHIIEMPHVEEVIAPIFYTVPLQLLAYHVALIKGTDVDQPRNLAKSVTVE | soluble
18 | MGIFETMSQVRRLPQALAAAVATPPALAGSGTLRGLIGLDDSLGEAVTTRAEALTIPAVLRARNLLSTTVARTPLVCDGTLPPFVPVAAPPGAATMQTPFHRMLATADDLLFNGVACWALDRDESGTCIGAIHIPLDTWQIEENTVRVNGKAVDPMEVCIFVGIHGGLLTHASETFTDARNLVRAAARVAQNPAALIELRQTNNAQLSPDDVDRIINGYVAARRGRNSGVGFSSSGLEVHEHEMAKENLLIEGRNAAAVDVARAMNVPAAFIDATVGGTSLSYQNAASRMIELVTFGVEPLMSAIEARLNQPDMHADHLANPLKFDPAALLDAIPTTPTIGAQPHGENS | not soluble
19 | LSDKLMERLKERAEGIFVSGPPGSGKSTFVAALAEFYRSQGKIVKTMESPRDLQVSKEITQYAPLEGDMEKTCDILLLVRPDYTIYDEVRKTRDFEIFADMRMAGVGMVGVVHASKPIDAIQRLIGRVELGVIPQVVDTVIFIKDGKIQKVYEIDFTVKVPYG | not soluble
